B1: TRIM63 (parent)
chain: QEKKLSFIEALIQQYQEQLDKSTK
B2: HESX1 (parent)
chain: SKYENYFSASERLSLKRELSWYRG

Variants of: B1
Assay: protein stability index of a GFP-peptide fusion (GPS, HEK-293T) (PSI 1-6); higher = more stable
Settings: c terminus: a fixed tail appended
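Further: lentivirally expressed fusions sorted by FACS into six bins by GFP to DsRed ratio, PSI derived from sequencing read proportions per bin multiplied by bin number.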

Protein stability index, by site and new letter:
Q1: N 2.49, C 2.37, P 2.39, T 2.23, V 2.39, H 2.28, I 2.03, G 2.31, K 2.34, Y 2.02, S 2.4, F 1.91, E 2.74, M 1.99, L 1.49, R 2.48, W 2.76, D 2.21
L5: M 2.38, G 3.91, F 2.91, P 3.58, H 2.9, Q 3.34, I 2.76, S 3.95, T 2.69, D 3.93, R 3.05, N 4.19, C 2.69, K 3.11, A 4.08, E 3.51
K3: Q 2.85, I 2.01, H 2.32, Y 2.88, W 1.57, N 3.11, T 3.04, G 3.03, E 3.04, L 2.15, D 3.27, S 3.6, P 2.67, R 2.84, F 2.43, A 2.67, V 2.32, C 3.24
K4: S 2.83, Q 3.4, H 3.22, D 3.48, F 2.18, V 2.02, C 1.9, A 1.87, R 2.77, G 3.03, P 3.07, W 1.85, L 2, E 2.73, M 1.68, I 1.96, N 3.32, Y 2.53, T 2.49
E2: V 1.74, L 2.73, D 2.74, F 2.44, W 2, R 2.93, Q 2.25, I 1.92, C 1.52, M 1.92, T 2, K 1.81, A 1.63, P 2.93, S 1.87, H 2.58, Y 2.75, G 2.93, N 1.9

Variants of: B2
Assay: as above
Settings: c terminus: a fixed tail appended

Protein stability index of substitutions, site by site:
R23: P 2.18, K 2.14, C 1.53, N 1.94, Q 2.51, A 1.85, W 1.83, Y 1.12, F 2.16, S 2.1, H 2.3, D 2.1
Y22: S 2.22, H 2.56, Q 1.7, A 1.82, W 2.4, P 2.29, K 2.46, D 3.06, C 2.27, T 1.9, R 1.9
S20: P 1.31, T 3.72, V 1.24, W 2.91, I 2.8, K 1.58, L 2.8, Y 2.75, F 1.66, M 1.14, Q 1.94, R 2.14
L19: C 2.01, F 2.68, P 2, I 2.52, R 2.18, E 2.08, G 1.87, V 1.79, T 2.31, K 1.81, M 1.95, W 1.41, S 3.25, H 2.66
G24: E 2.46, D 2.12, T 2.07, N 1.66, P 2.46, V 2.01, A 1.81, Y 1.45, H 2.11, K 2.74, I 1.81, L 1.35
W21: Q 2.63, N 2.27, C 2.2, K 1.75, P 2.39, Y 2.4, M 2.31, I 3.04, H 1.73, G 1.48, F 2.29, T 2.46, A 4.19, S 2.65, V 2.2, D 3.19
